According to US5948825A, “Microemulsion preparation containing a slightly absorbable substance” (Institute for Advanced Skin Research Inc., priority 1993, dated 1999):

Assays:
[1] = absorption by the rectum (through the mucous membrane); type: in vivo; settings: rats; relative to subcutaneous injection (integrated blood concentration over time) = 100%
Method: Rats were starved from the day before experiment until there was little feces left in the abdomen. […] Immediately after the injection, the anus was bound with a rubber band to prevent the leakage of the microemulsion. Blood was sampled at specified time intervals and the concentration of the drug in the blood was determined.

[2] = administration into the nasal cavity, closure technique; type: in vivo; settings: rats; relative to subcutaneous injection (integrated blood concentration over time) = 100%
Description: Rats were anesthetized and medisected in the neck to expose the windpipe and esophagus. Part of the windpipe was incised and a polyethylene tube was inserted into the windpipe to secure the airway, followed by ligation. The nostril and the opening in the incisive caval on the oral cavity side were closed with an adhesive. Part of the esophagus was incised for insertion of a nutrition catheter until its end reached into the nasal cavity. The part of the esophagus into which the nutrition catheter was inserted was ligated. […] Blood was sampled at specified time intervals and the change in the concentration of the drug in the blood was determined over time.
Availability: Relative value with the availability upon subcutaneous

[3] = absorption by the alimentary tract (duodenum); type: in vivo, rats; settings: route not given; relative to subcutaneous injection = 100%
Method: Rats were incised in the abdomen and a silicone rubber tube was passed through the alimentary tract from the stomach wall to the duodenum, followed by suturing of the stomach wall, peritoneum and skin through which the tube penetrated. […] As in (1), blood was sampled at specified time intervals and the concentration of the drug in the blood was determined.

Row | Substance | Availability, rectum [1] | Availability, nasal cavity [2] [%] | availability values (macromolecular peptides such as erythropoietin) [3]
1 | calcitonin: peptide drug of low absorbability through the mucous membrane | 22-23% | 50 | –
2 | erythropoietin: macromolecular peptide drug | – | – | 2-3%
